Assay results: patent publication US8541236B2, “Mutant apolipoprotein A-1 polypeptide with increased resistance to oxidation and reactive carbonyls” (University of Washington, priority 2006, dated 2013)
Entries after “also recorded” stand apart in the source; their conditions may differ.

What was measured:
[1] = target: T1, ABCA1 (Homo sapiens, UniProt O95477); design: expressed in transfected cells; host or cells: BHK (baby hamster kidney) cells; details: cited from earlier work
[2] = target: T1, ABCA1; assay: Radiolabeled cholesterol efflux assay from ABCA1-transfected BHK cells; type: cell-based; design: expressed in transfected cells; host or cells: BHK (baby hamster kidney) cells, mifepristone-inducible GeneSwitch system; details: for cholesterol efflux promoted: after oxidation by the MPO system
Experimental: The effect of oxidant treatment of apoA-I on the ability of apoA-I to promote cholesterol efflux from cells via the ABCA1 pathway was measured as follows.
A radiolabeled cholesterol efflux assay from ABCA1-transfected cells was carried out as described in Shao, et al., J. Biol. Chem. 280(7):5983-5993, 2005. Briefly described, baby hamster kidney (BHK) cells expressing mifepristone-inducible human ABCA1 were generated as described in Vaughan, A. M., et al., J. Lipid. Res. 44:1373-1380, 2003. Cellular cholesterol was labeled by adding 1 μCi/ml [^3H]cholesterol (Perkin Elmer Life Sciences) to the growth medium. Twenty-four hours later, strong expression of ABCA1 was induced by incubating the cells for 20 h with Dulbecco's modified Eagle's medium containing 1 mg/ml bovine serum albumin and 1 nM mifepristone. To measure cholesterol efflux, mock or ABCA1-transfected cells were incubated with Dulbecco's modified Eagle's medium/bovine serum albumin with or without apoA-I treated under the following conditions:
(1) purified apoA-I was treated for 1 hour with increasing concentrations of HOCl, H2O2 with MPO plus NACl, ONOO, or H2O2 with MPO plus NO2;
(2) purified apoA-I was treated for 24 hours with a molar ratio (mol:mol) of 0, 1:25, or 1:50 of acrolein; and
(3) peptide 2F was treated for 1 hour with a 25 molar excess of HOCl.
After 2 hour incubations with apoA-I, the medium and cells were assayed for [^3H]cholesterol as described in Vaughan, A. M., et al., J. Lipid. Res. 44:1373-1380, 2003. Cholesterol efflux mediated by apoA-I was calculated as the percentage of total [^3H]cholesterol (medium plus cells) released into the medium after subtracting the value obtained with Dulbecco's modified Eagle's medium/bovine serum albumin alone. Acrolein adducts of K226 were measured by MS.
BHK cells transfected with a mifepristone-inducible GeneSwitch (Invitrogen) system containing a human ABCA1 cDNA were incubated with serum-free medium with or without 10 nM mifipristone for 24 h to generate cells expressing virtually no or high levels of ABCA1, respectively (see Vaughan, A. M., and J. F. Oram, J. Lipid Res. 44:1373-1380, 2003). To radiolabel cellular cholesterol, [^3H]cholesterol was added to the acetyl LDL medium for macrophages and the growth medium prior to ABCA1 induction for BHK cells. Efflux of [^3H]cholesterol was measured after a 2 h incubation in medium with or without apoA-I (Tang, C., et al., J. Biol. Chem. 279:7622-7628, 2004).

[3] = tested on: Baby Hamster Kidney (BHK) cells transfected with a transfection vector alone (Mock); assay: 3H-cholesterol efflux from Mock-transfected BHK cells (ABCA1-independent, Example 11); type: cell-based; details: 20 μg/ml peptide, HOCl-treated (5 molar ratio HOCl to peptide), 4 hours
Experimental: (§1) Baby Hamster Kidney (BHK) cells were transfected with a cDNA expressing ABCA1 (ABCA1) or with a transfection vector alone (Mock). The transfected cells were radiolabeled with ^3H-cholesterol, washed and then incubated for 4 hours with media containing 20 μg/ml untreated or HOCl-treated (5 molar ratio HOCl to peptide) peptide 2F (SEQ ID NO:9). At the end of the incubation, the amount of ^3H-cholesterol (efflux) released from the cells was measured and expressed as the percent total (media plus cells) ^3H-cholesterol.

[4] = target: T1, ABCA1; assay: 3H-cholesterol efflux from ABCA1-transfected BHK cells, 4 hour incubation with peptide (Example 11); type: cell-based; design: expressed in transfected cells; host or cells: BHK (baby hamster kidney) cells; details: 20 μg/ml peptide, HOCl-treated (5 molar ratio HOCl to peptide)
Experimental: as §1

[5] = ESI-MS analysis of chlorination after incubation with HOCl; type: physicochemical; details: incubated in the presence of HOCl
[6] = Far UV circular dichroism of HOCl-treated apoA-I; type: physicochemical; details: treated 1 hour with HOCl
Experimental: Secondary structure of apoA-I was determined using far UV circular dichroism.

[7] = target: T2, Lecithin Cholesterol Acyltransferase (LCAT) (Homo sapiens, UniProt P04180); assay: Activation of LCAT after oxidation with MPO; type: biochemical; details: apoA-I exposed to MPO
T2 sequence (P04180 25-440): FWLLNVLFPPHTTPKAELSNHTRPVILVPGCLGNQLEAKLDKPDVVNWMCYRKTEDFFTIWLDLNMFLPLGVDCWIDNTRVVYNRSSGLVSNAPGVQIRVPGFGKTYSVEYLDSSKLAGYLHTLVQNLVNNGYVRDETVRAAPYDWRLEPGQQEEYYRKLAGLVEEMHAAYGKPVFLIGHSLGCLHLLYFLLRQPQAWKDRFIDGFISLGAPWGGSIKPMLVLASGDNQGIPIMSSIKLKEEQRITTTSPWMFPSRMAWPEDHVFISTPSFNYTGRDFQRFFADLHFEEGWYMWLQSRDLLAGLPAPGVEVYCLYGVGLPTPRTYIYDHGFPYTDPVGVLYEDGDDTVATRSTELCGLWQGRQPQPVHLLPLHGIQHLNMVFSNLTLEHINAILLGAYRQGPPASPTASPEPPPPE
Experimental: Reactions with isolated HDL (1 mg protein/ml) were carried out at 37° C. for 1 h in 50 mM sodium phosphate buffer (pH 7.4) containing 100 uM DTPA and 100 nM MPO. Reactions were initiated by adding hydrogen peroxide and terminated by adding a 20-fold molar excess (relative to peroxide) of Met.

[8] = Thioflavin T binding assay and electron microscopy for amyloid formation; type: physicochemical
Experimental: A thioflavin T binding assay was used to investigate whether chlorination of apoA-I promotes amyloid formation. Thioflavin T is known to bind rapidly to amyloid fibrils and undergoes a dramatic increase in fluorescence at 485 nm upon excitation at 455 nm (see Naiki, H., et al., Anal. Biochem. 177:244-249, 1989). apoA-I was chlorinated by treatment with HOCl or the MPO system and a time course of thioflavin T binding to treated apoA-I was carried out over 60 minutes as shown in FIG. 6B.

[9] = target: T1, ABCA1; assay: Radiolabeled cholesterol efflux assay from ABCA1-transfected BHK cells; type: cell-based; design: expressed in transfected cells; host or cells: BHK (baby hamster kidney) cells, mifepristone-inducible GeneSwitch system; details: apoA-I treated with increasing concentrations of MDA
[10] = Denaturing SDS-PAGE analysis of oxidant-treated apoA-I; type: physicochemical
Experimental: In order to analyze the effects of HOCl and acrolein on apoA-I structure, purified apoA-I was treated with a molar ratio of HOCl at mol:mol concentrations of 0, 5, 10, or 25; or with a molar ratio of acrolein at mol:mol concentrations of 0, 1, 2, 5, 10, or 20.

T1 sequence (O95477 whole entry): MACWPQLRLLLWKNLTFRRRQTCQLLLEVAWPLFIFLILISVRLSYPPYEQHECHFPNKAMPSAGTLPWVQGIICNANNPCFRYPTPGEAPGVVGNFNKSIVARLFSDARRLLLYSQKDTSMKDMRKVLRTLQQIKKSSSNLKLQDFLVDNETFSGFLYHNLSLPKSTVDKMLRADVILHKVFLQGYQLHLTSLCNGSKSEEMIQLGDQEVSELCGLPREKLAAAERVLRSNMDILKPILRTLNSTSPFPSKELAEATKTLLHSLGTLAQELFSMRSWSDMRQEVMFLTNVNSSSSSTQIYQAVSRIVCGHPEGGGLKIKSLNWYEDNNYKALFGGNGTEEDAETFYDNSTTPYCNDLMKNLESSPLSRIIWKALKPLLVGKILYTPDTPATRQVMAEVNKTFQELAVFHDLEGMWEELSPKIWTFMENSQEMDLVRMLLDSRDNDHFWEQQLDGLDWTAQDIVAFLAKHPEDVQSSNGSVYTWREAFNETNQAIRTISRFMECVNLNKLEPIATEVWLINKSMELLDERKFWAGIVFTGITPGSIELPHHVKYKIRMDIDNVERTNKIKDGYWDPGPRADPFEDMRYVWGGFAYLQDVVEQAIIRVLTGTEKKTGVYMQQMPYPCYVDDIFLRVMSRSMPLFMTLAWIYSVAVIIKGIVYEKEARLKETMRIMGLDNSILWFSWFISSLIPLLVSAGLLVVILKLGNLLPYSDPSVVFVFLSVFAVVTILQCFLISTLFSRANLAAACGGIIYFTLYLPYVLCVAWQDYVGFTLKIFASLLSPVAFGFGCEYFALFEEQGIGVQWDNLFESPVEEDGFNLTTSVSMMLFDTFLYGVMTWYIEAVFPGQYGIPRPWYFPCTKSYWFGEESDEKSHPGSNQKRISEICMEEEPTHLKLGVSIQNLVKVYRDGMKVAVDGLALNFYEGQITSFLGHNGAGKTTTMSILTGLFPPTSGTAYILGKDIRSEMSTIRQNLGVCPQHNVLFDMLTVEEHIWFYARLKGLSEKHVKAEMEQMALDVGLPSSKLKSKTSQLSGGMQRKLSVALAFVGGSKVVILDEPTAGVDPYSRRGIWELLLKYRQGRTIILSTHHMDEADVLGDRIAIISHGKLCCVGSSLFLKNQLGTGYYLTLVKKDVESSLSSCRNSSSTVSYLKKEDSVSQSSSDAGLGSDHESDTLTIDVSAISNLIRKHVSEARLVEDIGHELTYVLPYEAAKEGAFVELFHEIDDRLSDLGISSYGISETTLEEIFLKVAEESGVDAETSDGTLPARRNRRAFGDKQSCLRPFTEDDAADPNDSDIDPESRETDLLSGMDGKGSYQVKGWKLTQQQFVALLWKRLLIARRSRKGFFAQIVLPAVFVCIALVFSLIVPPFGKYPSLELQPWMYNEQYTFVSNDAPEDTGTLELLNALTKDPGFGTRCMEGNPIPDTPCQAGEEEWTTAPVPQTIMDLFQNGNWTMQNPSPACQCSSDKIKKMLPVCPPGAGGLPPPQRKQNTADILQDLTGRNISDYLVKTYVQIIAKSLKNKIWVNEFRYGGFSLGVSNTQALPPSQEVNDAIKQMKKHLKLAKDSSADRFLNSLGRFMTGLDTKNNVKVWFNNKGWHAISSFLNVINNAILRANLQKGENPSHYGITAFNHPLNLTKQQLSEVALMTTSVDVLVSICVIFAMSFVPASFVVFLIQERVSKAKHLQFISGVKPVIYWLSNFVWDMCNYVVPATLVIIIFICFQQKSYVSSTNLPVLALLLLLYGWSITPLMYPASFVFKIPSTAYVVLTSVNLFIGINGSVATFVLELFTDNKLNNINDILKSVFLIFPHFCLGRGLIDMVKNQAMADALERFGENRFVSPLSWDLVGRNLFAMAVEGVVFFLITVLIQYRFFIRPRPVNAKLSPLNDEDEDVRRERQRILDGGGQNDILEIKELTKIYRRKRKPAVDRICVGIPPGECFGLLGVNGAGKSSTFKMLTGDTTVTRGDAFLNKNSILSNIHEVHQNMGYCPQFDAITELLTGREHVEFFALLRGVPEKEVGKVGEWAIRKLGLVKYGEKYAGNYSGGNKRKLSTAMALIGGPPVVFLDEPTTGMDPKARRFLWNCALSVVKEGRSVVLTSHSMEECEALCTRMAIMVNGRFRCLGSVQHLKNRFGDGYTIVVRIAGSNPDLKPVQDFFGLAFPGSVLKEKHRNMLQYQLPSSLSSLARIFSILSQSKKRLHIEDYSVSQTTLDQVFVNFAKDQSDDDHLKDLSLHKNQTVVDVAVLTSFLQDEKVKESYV

Ac-DWFKAFYDKVAEKFKEAF-NH2 [4F, 4F apoA-I mimetic peptide, unmodified original]
removing cell lipids by the ABCA1 pathway [1]: mimic apoA-I

Ac-DWLKAFYDKVAEKLKEAF-NH2 [2F, 2F apoA-I mimetic peptide, unmodified]
ABCA1 dependent cholesterol efflux activity ([2]; peptide treated 1 hour with a 25 molar excess of HOCl, versus untreated peptide): significantly reduced
removing cell lipids by the ABCA1 pathway [1]: mimic apoA-I
ability to remove cholesterol by ABCA1-independent mechanism [3]: significantly reduced
ability to remove cholesterol by ABCA1-dependent mechanism [4]: significantly reduced

Tyr192Phe apoA-I: Tyr192Phe mutant of human apoA-I made by PCR mutagenesis, bacterially expressed
cholesterol efflux promoted [2]: significantly decreased
protective effect against apoA-I inactivation ([2]; by either HOCL or the MPO system): only a small protective effect
ability to promote cholesterol efflux ([2]; increasing H2O2 in the complete MPO system, then incubated with PilB): nearly the same as that of native apoA-I
rates of cholesterol efflux compared with native apoA-I ([2]; no oxidant, increasing protein concentrations): virtually identical
resistance to oxidative inactivation by MPO ([2]; when the concentration of H2O2 was high): somewhat resistant
chlorination of residue 192 by HOCl [5]: fails to chlorinate

apoA-I: mature form of wild type human apoA-I, 243 amino acid polypeptide, purified from HDL
mean residue molar ellipticity at 222 nm [6]: concentration-dependent increase
correlation (R) of impaired cholesterol removal with adduction of K226 ([2]; acrolein-treated apoA-I): 0.988
cholesterol efflux activity ([2]; after nitration of apoA-I (H2O2 with MPO plus NO2)): fails to affect; also recorded: only a small inhibitory effect
cholesterol efflux promoted [2]: significantly decreased
cholesterol efflux activity ([2]; apoA-I treated 1 hour with increasing concentrations of HOCl or of H2O2 with the complete chlorinating MPO system): progressively and extensively impaired
ability to remove cellular cholesterol by the ABCA1 pathway ([2]; apoA-I treated 24 hours with increasing concentrations of acrolein): progressively impaired
cholesterol efflux activity ([2]; apoA-I treated with ONOO-): no effect
ability to promote cholesterol efflux ([2]; complete MPO system with increasing H2O2 or increasing HOCl, then PilB to reduce Met(O) back to Met): partially restored
ability to activate LCAT [7]: looses its ability to activate LCAT; also recorded: loss of its ability
thioflavin T binding ([8]; chlorination by HOCl or the complete MPO system, versus untreated apoA-I): markedly increased
amyloid-like structures ([8]; nitrated apoA-I): failed to reveal amyloid-like structures
amyloid-like structures ([8]; untreated apoA-I): no detectable amyloid-like structures
cholesterol efflux activity [9]: progressively and extensively impaired
higher molecular weight species on SDS-PAGE ([10]; increasing concentrations of HOCl): generated higher molecular weight species that were resistant to SDS
higher molecular weight species on SDS-PAGE ([10]; increasing concentrations of acrolein): generated higher molecular weight species that were resistant to SDS
higher molecular weight species on SDS-PAGE ([10]; nitrated by reagent ONOO- or the complete MPO/H2O2/NO2 system): not observed
